Source: patent US20200347464A1

Target: prostate-specific membrane antigen (PSMA) (human) (UniProt Q04609)
Experiment: in vivo near-infrared optical imaging of mouse liver, 72 h after Ad-Track-PSMA or Ad-Track-Luciferase, 48 h after 15 or 30 ug J591-IR800

prostate-specific membrane antigen (PSMA) (human), sequence (Q04609 whole entry): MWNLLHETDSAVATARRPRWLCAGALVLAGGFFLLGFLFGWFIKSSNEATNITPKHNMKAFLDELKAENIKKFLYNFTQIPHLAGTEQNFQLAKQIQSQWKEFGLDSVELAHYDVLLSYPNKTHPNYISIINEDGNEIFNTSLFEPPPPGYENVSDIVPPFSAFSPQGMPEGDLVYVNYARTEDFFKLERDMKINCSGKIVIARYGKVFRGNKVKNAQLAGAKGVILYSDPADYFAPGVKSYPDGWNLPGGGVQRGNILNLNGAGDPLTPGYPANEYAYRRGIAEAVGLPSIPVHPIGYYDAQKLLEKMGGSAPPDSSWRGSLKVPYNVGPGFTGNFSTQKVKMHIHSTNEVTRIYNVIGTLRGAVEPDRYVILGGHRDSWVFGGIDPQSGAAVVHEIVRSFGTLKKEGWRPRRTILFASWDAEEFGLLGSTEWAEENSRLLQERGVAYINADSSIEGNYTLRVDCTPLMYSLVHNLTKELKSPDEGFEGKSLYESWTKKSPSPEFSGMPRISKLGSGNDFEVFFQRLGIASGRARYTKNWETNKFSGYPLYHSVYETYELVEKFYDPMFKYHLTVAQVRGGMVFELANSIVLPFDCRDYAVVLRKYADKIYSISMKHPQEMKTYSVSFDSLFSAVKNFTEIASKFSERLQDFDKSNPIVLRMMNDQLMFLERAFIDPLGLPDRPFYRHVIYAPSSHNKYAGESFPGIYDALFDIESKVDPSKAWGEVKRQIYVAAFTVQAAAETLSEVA

signal-to-noise ratio (PSMA adenovirus relative to control adenovirus, liver): 3
Substance: J591 antibody conjugated to IRDye 800CW
